The Human Domainome abundance scans (Beltran et al. 2025)

B1: Protein C-ets-1, residues 55 to 135; numbered along this chain, P14921 (parent)
chain: GFTKEQQRLGIPKDPRQWTETHVRDWVMWAVNEFSLKGVDFQKFCMNGAALCALGKDCFLELAPDFVGDILWEHLEILQKE

Variants of: B1
Assay: abundance fitness (aPCA) (normalised: wild type 0, dead -1); higher = more abundant; growth selection in yeast, the domain comes from the species named
Settings: Homo sapiens

Abundance fitness: each site, then its substitutions
L36: T -0.697; P -0.725
L51: N -0.718; I -0.15; A -0.847; C -0.803; M -0.11; R -0.788; F -0.894; P -0.794; H -0.813; G -1.03; E -0.952; W -0.893; K -1.08; Y -0.94; D -0.97; Q -0.923; T -0.961
K37: E 0.044; D -0.022; C -0.128; W -0.213; P -0.043; R -0.076; N -0.033; S -0.033; Q 0.005; Y -0.255; M -0.146; T -0.027; H -0.048; F -0.199; V -0.017; I -0.064; G -0.054; L -0.161; A -0.046
F44: P -0.892; K -1.04; T -0.766; V -0.539; H -0.89; N -1.01; R -0.939; D -0.724; I -0.38; Q -1.08; M -0.275; W -0.138; S -0.76; A -0.769; C -1.01; E -0.73; G -1.02
G48: M -1.07; R -0.933; L -1.05; K -0.911; I -1.03; P -1.02; N -0.758; Q -0.931; A -0.972; E -0.806; W -0.797; C -0.884; V -0.805; H -0.94; S -0.911
C45: H 0.052; K -0.067; Q -0.002; L -0.087; P -0.344; R -0.024; T -0.007; F -0.028; E 0.022; Y -0.032; M -0.019; W -0.041; N 0.116; A 0.053; V -0.05; S 0.01
N47: M -0.881; S -0.003; K -0.204; C -0.223; P 0.014; H -0.152; D -0.007; T 0.065; Q -0.277; V -0.903; W -1.01; L -0.879; E -0.165; G -0.185
M46: H -0.441; W -0.631; E -0.991; G -0.671; A -0.652; C -0.317; R -0.507; T -0.477; I -0.154; F -0.028; P -0.852; K -0.376; Q -0.335; D -0.777; Y -0.203; V -0.234; S -0.724; L -0.074
A50: L -0.202; H -0.076; W -0.548; Y -0.351; R -0.063; I -0.236; D 0.026; P -0.811; K 0.042; Q 0.015; M -0.007; C -0.116; T -0.026; E 0.02; F -0.375; G -0.202
G38: I -0.428; N 0.052; T -0.201; A -0.202; H 0; F -0.43; M -0.273; L -0.492; K -0.055; Q -0.221; P -0.172; R -0.18; D -0.039; S -0.123; V -0.476; C -0.334; E -0.103; W -0.467
K43: E -0.283; Y -0.351; D -0.2; G -0.289; M -0.315; T -0.302; F -0.494; C -0.206; R -0.007; N -0.049; Q -0.086; S -0.185; H -0.187; I -0.424; V -0.425
